Assay [1] deals with wild-type raccoon dog parvovirus strain RDPV/CL/2016, capsid of VP2 (raccoon dog parvovirus, strain …). As to the kind of experiment: BLI. On the technique in general: In BLI a coated tip is dipped into the sample, and binding shifts an interference pattern.
Assay [2] concerns the target wild-type raccoon dog parvovirus strain RDPV/FLD/2010, capsid of VP2 (raccoon dog parvovirus, strain …). As to the kind of experiment: BLI.

B1: raccoon dog transferrin receptor ectodomain (recombinant RDTfR, from residue 121, C-terminal 6x His) (receptor)
chain: EEYFPETPSRLFWTDLKTMLSERLSNTDFTNTMRWLNENSYVPREAGSQKDESLALLIENRFREFQLSKSWRDEHFVKIQVKSSNAQNTVTIVGTESGLVYLVENPEGYVAYSKATTVTGRLVHVNFGTKKDFENLKSPVNGSLVIARAGKITFAEKVANAQSYNALGVLIYMDQARFPIVNAQIPFFGHAHLGTGDPYTPGFPSFNHTQFPPSQSSGLPSIPVQTIPRAVAEKLFENMEGDCPSAWEIDPSCRLETSPNKNVKLTVNNVLKEIRIFNIFGVIKGFEEPDRYVVIGAQRDAWGPGAAKSSVGTALLLELARIFSDMVLKGGFKPSRSIVFASWSAGDFGAIGATEWLEGYLSSLHLKAFTYINLDKAILGTSNFKVSASPLLYSLLEKTMKDVKHPITGQSLYRDSNWINKVEKWSLDNAAFPFLAYSGIPAVSFCFCEDTDYPYLGTTMDLYENLNQKIPQLNKMARGAAEVAGQLIIKLTYDLELNLNYEMYNDKILSFVRDMNQFRTDLKEMGLNLQWLYSARGDFFRATSRLTTDYKNAERTNRFVMREINDRIMKVEHNFLSPYVSPRDSPFRHIFWGSGSHTLPALVEHLKLRQKNNSAFNETLLRNQLALATWTIQGAANALSGDIWDIDNEL
For B1, the off-rate (koff) stood at 0.00441 s⁻¹ in assay [1] and 0.0126 s⁻¹ in assay [2].

What is called koff is the first-order rate constant of dissociation. Higher therefore signals a short-lived complex.

The record behind these values is article PMC12548415 (2025).
